What was measured:
[1] = molecular target: EPN-Fos-M (EPN monomer with the Fos domain between the Interaction domain and the Late budding domain; prokaryotic construct pET-EPN-Fos-M) (not stated | HIV)
[2] = molecular target: EPN-Fos-C (EPN monomer with the Fos domain at the C-end; prokaryotic construct pET-EPN-Fos-C) (HIV | not stated)
[3] = molecular target: EPN-p6 (enveloped protein nanocage monomer with the p6 domain; prokaryotic construct pET-EPN-His-p6) (HIV)

Substance | NanoLuc, molecules in a single nanocage, in EV M (estimated from luciferase assay and the EPN/NanoLuc molar ratio by MS/MS) (molecules in a single nanocage) [1] | NanoLuc, molecules in a single nanocage, in EV C (estimated from luciferase assay and the EPN/NanoLuc molar ratio by MS/MS) (molecules in a single nanocage) [2] | NanoLuc, molecules in a single nanocage, in EV C(lenti) (estimated from luciferase assay and the EPN/NanoLuc molar ratio by MS/MS) (molecules in a single nanocage) [2] | NanoLuc, molecules in a single nanocage, in EV p6 (estimated from luciferase assay and the EPN/NanoLuc molar ratio by MS/MS) (molecules in a single nanocage) [3]
NanoLuc-Jun (NanoLuc luciferase fused with the Jun leucine zipper domain) | 21 | 15 | 40 | 
NanoLuc-Vpr (NanoLuc luciferase fused with HIV viral protein R) (from UniProt P69726 1-96) |  |  |  | 1.5

Reference: PMC8224366
